Experimental data taken from patent US20230414796A1, “COMBINATION OF PARA-AMINOHIPPURIC ACID (PAH) AND RADIOLABELED COMPLEXES FOR TREATING CANCER” (priority 2020, published 2023).

What was measured:
[1] = Example 1: body weight of AR42J xenograft CD1 nude mice; details: mouse, in vivo
Experimental: (§1) Body weight and tumor volume were evaluated every two to three days for a period of 57 days after treatment (or until the tumor size limit was reached). The tumor volume was determined by measuring the length, the width and the depth of the tumor with a digital caliper. Tumor volume was calculated by using the following formula: […]
(§2) The mice were monitored until the individual tumor size reached 1500 mm^3. When this experimental endpoint was reached or after a 57 days period following treatment, mice were euthanized. Mean tumor volume and body weight of AR42J xenograft CD1 nude mice were calculated for each treatment group throughout the duration of the study.

[2] = Example 2: body weight of AR42J xenograft SWISS mice; set-up: species or system SWISS nude mice; details: mouse, in vivo
Experimental: 10 min prior to dosing of ^177Lu-DOTATOC, mice of groups 1 and 2 were injected intraperitoneally with 50 μL saline or PAH, respectively.
as §1, with “46” for “57”
as §2, with “46” for “57”, “SWISS” for “CD1 nude”

C[C@@H](O)[C@@H]1NC(=O)[C@H](CCCCN)NC(=O)[C@@H](Cc2c[nH]c3ccccc23)NC(=O)[C@H](Cc2ccc(O)cc2)NC(=O)[C@@H](NC(=O)[C@@H](Cc2ccccc2)NC(=O)CN2CCN(CC(=O)O)CCN(CC(=O)O)CCN(CC(=O)O)CC2)CSSC[C@@H](C(=O)N[C@H](CO)[C@@H](C)O)NC1=O [^177Lu-DOTATOC, ^177Lu-DOTA-D-Phe-cyclo(Cys-Tyr-D-Trp-Lys-Thr-Cys]-Thr(ol), metal not drawn]
average weight change compared to untreated tumor-bearing control mice [1]: increased similarly | physical appearance throughout the study period [1]: maintained a healthy physical appearance | average weight increase compared to tumor-bearing control mice [2]: increased slightly more slowly | physical appearance throughout the study period [2]: maintained a healthy physical appearance | radiotoxicity (suggested by body weight) [2]: low radiotoxicity
